The text below walks through data of PMC9645710, “Cryo-EM structures of peripherin-2 and ROM1 suggest multiple roles in photoreceptor membrane morphogenesis” (Science Advances, 2022).

Series [1] has as its target T1, ROM1 (human rod outer segment membrane protein 1, N-terminal Strep3-GFP tag) (human, UniProt Q03395 1-351).
T1 construct: rod outer segment membrane protein 1 (ROM1), human, full length; codon-optimized cDNA from GeneArt in a pUPE vector; Residues 323 to 351 were not modelled in the structure; also called retinal outer segment protein 1; source: HEK293T, transiently transfected together with PRPH2^C150S, solubilized in DDM/CHS, purified (Strep-Tactin, SEC); not shown: Strep3, N-terminal, kept
As to the kind of experiment: cryo-EM structure; PRPH2^C150S-ROM1 purified in 25 mM tris-HCl, 150 mM NaCl, pH 7.5, 0.025% DDM/CHS, incubated with an excess of Nanobody19, ~9 mg/ml; single-particle map at 3.7 A. Particulars: both partners purified.

Series [2] concerns the molecule itself. As to the kind of experiment: SEC; PRPH2 and ROM1 (wild type or cysteine mutants) expressed in HEK293T, solubilized in DDM/CHS; Superdex 200 Increase 10/300 GL, 25 mM tris-HCl, 150 mM NaCl, pH 7.5, 0.025% DDM/CHS; no reducing agent.
Series [3] deals with T2, ROM1 (human rod outer segment membrane protein 1, wild type, N-terminal Strep3 tag) (human, UniProt Q03395 1-351).
T2 construct: rod outer segment membrane protein 1 (ROM1), human, full length; codon-optimized cDNA from GeneArt in a pUPE vector; source: HEK293T, transiently transfected together with PRPH2, solubilized in DDM/CHS, purified (Strep-Tactin, SEC); not shown: Strep3, N-terminal, kept
T2 sequence (Q03395 whole entry): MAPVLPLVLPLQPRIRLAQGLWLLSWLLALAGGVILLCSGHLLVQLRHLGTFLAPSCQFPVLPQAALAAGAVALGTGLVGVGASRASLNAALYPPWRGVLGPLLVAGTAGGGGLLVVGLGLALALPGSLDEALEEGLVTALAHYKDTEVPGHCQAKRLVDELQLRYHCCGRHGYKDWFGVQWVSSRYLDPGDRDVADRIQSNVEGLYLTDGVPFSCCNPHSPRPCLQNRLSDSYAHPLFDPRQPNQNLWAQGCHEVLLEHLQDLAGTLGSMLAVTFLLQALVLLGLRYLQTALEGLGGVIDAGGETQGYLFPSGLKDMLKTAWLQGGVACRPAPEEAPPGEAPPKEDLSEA
As to the kind of experiment: cryo-EM structure; wild-type PRPH2-ROM1, one SEC fraction of heterogeneous complexes in 0.025% DDM/CHS, ~3.6 mg/ml; maps of tetramer, hexamer and octamer at ~7-8 A with the heterodimer docked in; the sizes count chains of PRPH2 and ROM1 together. Particulars: both partners purified.

Series [4] deals with T3, ROM1 (human rod outer segment membrane protein 1, N-terminal Strep3-GFP tag) (human, UniProt Q03395).
T3 construct: rod outer segment membrane protein 1 (ROM1), human, full length; codon-optimized cDNA from GeneArt in a pUPE vector; Residues 323 to 351 were not modelled in the structure; also called retinal outer segment protein 1; source: HEK293T, transiently transfected together with PRPH2^C150S, solubilized in DDM/CHS, purified (Strep-Tactin, SEC); not shown: Strep3, N-terminal, kept
As to the kind of experiment: cryo-EM structure; PRPH2^C150S-ROM1 purified in 25 mM tris-HCl, 150 mM NaCl, pH 7.5, 0.025% DDM/CHS, incubated with an excess of Nanobody19, ~9 mg/ml; single-particle map at 3.7 A. Particulars: both partners purified.

The target in series [5] is T4, PRPH2^C150S-ROM1 heterodimer (human, UniProt P23942;Q03395, C150S, N-acetylglucosamine on Asn229 (density in the map); possible glycosylation at Asn53).
T4 construct: peripherin-2 (PRPH2), human, full length; as m1; rod outer segment membrane protein 1 (ROM1), human, full length; as m2; Formed and purified before Nanobody19 was added; also called PRPH2^C150S-ROM1 complex; PRPH2-ROM1 heterodimer; source: HEK293T, transiently co-transfected, solubilized in DDM/CHS, purified (Strep-Tactin, SEC); not shown: Strep3, N-terminal, kept; copies: 1 + 1
T4 sequence (Q03395 whole entry, stated change not applied, one chain of several): as the sequence (Q03395 whole entry) above
The series is described as above. As to conditions: both partners purified.

B1: PRPH2^C150S (human peripherin-2 with mutation C150S, N-terminal 6x-His tag) (natural protein, UniProt P23942 1-346, looked up)
chain: MALLKVKFDQKKRVKLAQGLWLMNWFSVLAGIIIFSLGLFLKIELRKRSDVMNNSESHFVPNSLIGMGVLSCVFNSLAGKICYDALDPAKYARWKPWLKPYLAICVLFNIILFLVALCCFLLRGSLENTLGQGLKNGMKYYRDTDTPGRSFMKKTIDMLQIEFKCCGNNGFRDWFEIQWISNRYLDFSSKEVKDRIKSNVDGRYLVDGVPFSCCNPSSPRPCIQYQITNNSAHYSYDHQTEELNLWVRGCRAALLSYYSSLMNSMGVVTLLIWLFEVTITIGLRYLQTSLDGVSNPEESESESQGWLLERSVPETWKAFLESVKKLGKGNQVEAEGADAGQAPEAG
modifications: N-acetylglucosamine on Asn229 (density in the map); possible glycosylation at Asn53
notes: peripherin-2 (PRPH2), human, full length; codon-optimized cDNA from GeneArt in a pUPE vector; Residues 322 to 346 were not modelled in the structure; source: HEK293T, transiently transfected together with ROM1, solubilized in DDM/CHS, purified (Strep-Tactin through ROM1, SEC)
In the case of B1, the binding result in series [1] is “binds”.

B2: PRPH2 (human peripherin-2, wild type, N-terminal 6x-His tag) (natural protein, UniProt P23942 1-346, looked up)
chain: MALLKVKFDQKKRVKLAQGLWLMNWFSVLAGIIIFSLGLFLKIELRKRSDVMNNSESHFVPNSLIGMGVLSCVFNSLAGKICYDALDPAKYARWKPWLKPYLAICVLFNIILFLVALCCFLLRGSLENTLGQGLKNGMKYYRDTDTPGRCFMKKTIDMLQIEFKCCGNNGFRDWFEIQWISNRYLDFSSKEVKDRIKSNVDGRYLVDGVPFSCCNPSSPRPCIQYQITNNSAHYSYDHQTEELNLWVRGCRAALLSYYSSLMNSMGVVTLLIWLFEVTITIGLRYLQTSLDGVSNPEESESESQGWLLERSVPETWKAFLESVKKLGKGNQVEAEGADAGQAPEAG
notes: peripherin-2 (PRPH2), human, full length; codon-optimized cDNA from GeneArt in a pUPE vector; The tag is told for the oligomer preparation; source: HEK293T, transiently transfected together with ROM1, solubilized in DDM/CHS, purified (Strep-Tactin through ROM1, SEC)
With B2, the “stoichiometry N” value in series [2] was found to be 2. Also, the binding result in series [3] is recorded as “binds”.

B3: Nanobody19 (VHH)
VHH: QVQLQESGGGLVQAGGSLRLSCAASTRTTSRYTVGWFCQAPGKEREFVAAVHWSGGSTWYADSVKGRFTISRDNAKNTVYLQMNSLKQEDTAVYYCAAAEPRRYSYYMRPDEYNYWGQGTQVTVSS
notes: modelled in the deposited structure PDB 7ZW1; also called Nb19; source: E. coli BL21(DE3), purified (Ni-NTA, SEC)
As for B3, the binding result in series [4] is listed as “binds”. Further, the “stoichiometry N” value in series [5] came to 1.
